Data as given in patent US20170184603A1 (MORPHOTEK, published 2017).

Target: T1, purified FR-α (UniProt P15328 25-234, limits assumed)
T1 construct: also called folate receptor-alpha; alpha-folate receptor
Test: surface plasmon resonance spectroscopy

T1 sequence (P15328 25-234 limits assumed): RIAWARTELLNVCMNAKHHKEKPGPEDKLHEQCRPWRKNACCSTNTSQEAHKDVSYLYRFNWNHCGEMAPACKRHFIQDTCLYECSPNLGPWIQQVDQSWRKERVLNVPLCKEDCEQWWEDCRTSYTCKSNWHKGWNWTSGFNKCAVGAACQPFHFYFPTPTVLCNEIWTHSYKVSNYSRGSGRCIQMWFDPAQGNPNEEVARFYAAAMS

Kd: 2.23 nM
koff: ~0.000502 s⁻¹
kon: ~225000 M⁻¹ s⁻¹
B1: anti-FR-α antibody comprising a heavy chain comprising an amino acid sequence of SEQ ID NO:5 and a light chain comprising an amino acid sequence of SEQ ID NO:2 (antibody, human IgG1, kappa, V domains shown)
VH: EVQLVESGGGVVQPGRSLRLSCSASGFTFSGYGLSWVRQAPGKGLEWVAMISSGGSYTYYADSVKGRFAISRDNAKNTLFLQMDSLRPEDTGVYFCARHGDDPAWFAYWGQGTPVTVSS
VL: DIQLTQSPSSLSASVGDRVTITCSVSSSISSNNLHWYQQKPGKAPKPWIYGTSNLASGVPSRFSGSGSGTDYTFTISSLQPEDIATYYCQQWSSYPYMYTFGQGTKVEIKR
notes: also called antibody of the invention; humanized anti-FR-α antibody
